These results are taken from US20240287501A1 (VIB VZW, published 2024).

The target in one assay is T1, GFP-tagged SSA1 (Saccharomyces cerevisiae, UniProt P10591 2-642).
T1 construct: Yeast GFP Fusion Collection strain; also called Yeast GFP fusion collection GFP(+)10, E4; not shown: GFP tag
Description: co-immunoprecipitation, Nb coupled to NHS-agarose beads, lysate of the yeast strain expressing the GFP-tagged target, Western blot anti-GFP. The protocol:
Six SSA1-specific Nanobodies (60=Nb clone CA17560 corresponding to SEQ ID NO: 19, 61=CA17561-SEQ ID NO: 20, 62=CA17562-SEQ ID NO: 21, 63=CA17563-SEQ ID NO: 22, 64=CA17564-SEQ ID NO: 23, 65=CA17565-SEQ ID NO: 24) were characterized by co-immunoprecipitation assays. Each SSA1-specific Nanobodies was covalently linked to NHS-agarose beads. The beads that were functionalized with these SSA1-specific Nanobodies were incubated for an hour at 4° C. on a rotating device with either an EBY100 lysate or the lysate of the engineered Yeast strain expressing SSA1 (Yeast GFP fusion collection reference: GFP(+)10, E4) as a GFP-tagged protein. After washing, these beads were resuspended in SDS-PAGE loading dye and analyzed on SDS-PAGE (FIG. 6A). Separated proteins were transferred to a PVDF membrane and the Western blot (FIG. 6B) was developed with GFP-specific antibody to confirm the presence of GFP-tagged SSA1.
In general terms: A western blot detects proteins with antibodies after separation by electrophoresis.

Assay [1] has as its target T2, SSA1 (native, from EBY100 lysate) (Saccharomyces cerevisiae, UniProt P10591 2-642).
T2 construct: mature; Endogenous untagged protein; also called YAL005C
Nature of the assay: co-IP, Nb on NHS-agarose beads, EBY100 yeast lysate, SDS-PAGE.

The target in the next assay is T3, GFP protein (Aequorea victoria (Water jellyfish) …, UniProt P42212 1-238 = GFP, biotinylated with the EZ-Link sulfo-NHS-LC-biotinylation kit for the BLI assay; unmodified in the NANEX selections).
T3 construct: Purified GFP; also called wild type GFP; biotinylated GFP
Description: BLI (Octet), biotinylated GFP on streptavidin sensors saturated with CA12760, second step CA12760 + 2nd Nb. On the procedure: The binding properties of the newly discovered GFP-specific Nanobodies were analysed by a Bio-layer interferometry (BLI) on an OctetRed (molecular devices). Streptavidin-coated Octet® biosensors were used to capture biotinylated GFP (100 nM). Next, the picomolar GFP stripper (CA12760; SEQ ID NO:1) was allowed to bind to GFP until a plateau was reached. These CA12760-saturated biosensors were next incubated separately in solutions containing each newly discovered Nb (as indicated in the legend of the figure), supplemented with CA12760 Nb. Assays were performed in HEPES 25 mM pH 7.5, NaCl 150 mM supplemented with BSA 0.1% and Tween₂₀ 0.005% at room temperature.
Epitope analysis. […] For this we loaded the Streptavidin biosensor with biotinylated GFP, next we allowed CA12760 (SEQ ID NO:1), the GFP-stripper with picomolar affinity, to bind to GFP. After washing, this biosensor loaded with the GFP-CA12760 complex was incubated with the newly discovered Nbs.
Epitope mapping of GFP Nanobodies by Bio-layer interferometry (BLI). Streptavidin-coated Octet® biosensors were used to capture biotinylated GFP (100 nM). Unbound biotinylated GFP is washed off from biosensor by two washing steps (60 seconds in buffer). Next, Streptavidin-coated Octet® biosensors with GFP were first incubated for 400 seconds with 20 nM CA12760, the GFP stripper, washed briefly, followed by an incubation of 400 seconds in a premix of 20 nM CA12760 with the different Nbs to be tested. Data were analyzed on an OctetRed (molecular devices). All assays were performed in HEPES 25 mM pH 7.5, NaCl 150 mM supplemented with BSA 0.1% and Tween₂₀ 0.005% at room temperature.
For orientation: In BLI a coated tip is dipped into the sample, and binding shifts an interference pattern.

In assay [2] the target is T4, PGI1 (native, un-tagged, from EBY100 lysate) (Saccharomyces cerevisiae, UniProt P12709 2-554).
T4 construct: mature; Endogenous untagged protein, 61 kDa band; also called YBR196C; endogenous PGI1
Description: co-immunoprecipitation, Nb coupled to NHS-agarose beads, EBY100 yeast lysate (native target), SDS-PAGE. On the procedure:
(§1) Each PGI1-specific Nanobody was covalently linked to NHS-agarose beads. The beads that were functionalized with these PGI1-specific Nanobodies were incubated for an hour at 4° C. on a rotating device with either an EBY100 lysate or the lysate of the engineered Yeast strain expressing PGI1 (Yeast GFP fusion collection reference: GFP(+)12, H11) as a GFP-tagged protein. After washing, these beads analyzed on SDS-PAGE (FIG. 14A). Separated proteins were transferred to a PVDF membrane and the Western blot was developed with a GFP-specific antibody to confirm the presence of GFP-tagged PGI1 (FIG. 14B). 55=Nb clone CA17455 corresponding to SEQ ID NO: 15, used as trapper/stripper for PGI1, serves as a positive control.
(§2) Individual clones were isolated from the enriched sub-library by plating tenfold serial dilutions of the overnight-grown phage-infected E. coli TG1 cells in LB. 96 individual clones were picked and grown in a 96-well plate containing LB supplemented with 100 μg/mL ampicillin. Plasmids containing the Nanobody encoding genes were purified, sequenced and grouped into sequence families (Material and methods). A representative member of each sequence family was selected. Six different PGI1 specific Nanobodies, derived from four different sequence families (Nb clone CA17791 corresponding to SEQ ID NO: 46, CA17792-SEQ ID NO:47, CA17793-SEQ ID NO:48, CA17794-SEQ ID NO:49, CA17795-SEQ ID NO:50, and CA17796-SEQ ID NO:51) were selected based on their CDR3 sequences. Their encoding plasmid was transformed into the E. coli WK6 expression strain to express and purify each Nanobody of interest. The specificity of the PGI1-specific Nanobodies was confirmed by linking separate Nanobodies on NHS-agarose beads for co-immunoprecipitation assays. The beads that were functionalized with these PGI1-specific Nanobodies and incubated for an hour at 4° C. on a rotating device with either an EBY100 lysate expressing native (un-tagged) PGI1 or the lysate of the engineered yeast strain (GFP(+)12, H11) expressing PGI1 as a GFP-tagged protein. After washing, these beads were resuspended in SDS-PAGE loading dye and analyzed on SDS-PAGE (FIG. 14A). Separated proteins were also transferred to PVDF membranes and the Western blot was developed with a GFP-specific antibody to confirm the presence of the GFP-tagged PGI1 (FIG. 14B).

For another assay, the target named is T5, GFP-tagged PGI1 (Saccharomyces cerevisiae, UniProt P12709 2-554).
T5 construct: Yeast GFP Fusion Collection strain; 88 kDa band; also called GFP-PGI1; Yeast GFP fusion collection GFP(+)12, H11; not shown: GFP tag
Nature of the assay: co-immunoprecipitation, Nb coupled to NHS-agarose beads, lysate of the yeast strain expressing the GFP-tagged target, SDS-PAGE. The protocol:
as §1, §2

T4 sequence (P12709 2-554): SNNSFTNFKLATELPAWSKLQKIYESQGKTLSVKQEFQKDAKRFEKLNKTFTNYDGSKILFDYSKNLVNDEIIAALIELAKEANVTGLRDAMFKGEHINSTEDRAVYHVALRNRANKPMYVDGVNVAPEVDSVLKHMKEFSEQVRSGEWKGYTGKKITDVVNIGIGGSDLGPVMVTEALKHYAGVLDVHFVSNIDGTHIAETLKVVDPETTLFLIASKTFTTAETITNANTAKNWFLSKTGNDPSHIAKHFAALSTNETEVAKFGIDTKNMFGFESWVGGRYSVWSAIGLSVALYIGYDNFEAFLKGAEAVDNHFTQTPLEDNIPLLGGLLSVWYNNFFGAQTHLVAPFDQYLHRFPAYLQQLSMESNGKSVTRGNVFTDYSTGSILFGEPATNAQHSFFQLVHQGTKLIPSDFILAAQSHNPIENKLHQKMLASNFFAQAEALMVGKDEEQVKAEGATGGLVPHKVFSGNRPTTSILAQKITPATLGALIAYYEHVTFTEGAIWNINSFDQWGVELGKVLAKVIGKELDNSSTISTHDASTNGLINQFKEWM
T5 sequence (P12709 2-554): as above
T1 sequence (P10591 2-642): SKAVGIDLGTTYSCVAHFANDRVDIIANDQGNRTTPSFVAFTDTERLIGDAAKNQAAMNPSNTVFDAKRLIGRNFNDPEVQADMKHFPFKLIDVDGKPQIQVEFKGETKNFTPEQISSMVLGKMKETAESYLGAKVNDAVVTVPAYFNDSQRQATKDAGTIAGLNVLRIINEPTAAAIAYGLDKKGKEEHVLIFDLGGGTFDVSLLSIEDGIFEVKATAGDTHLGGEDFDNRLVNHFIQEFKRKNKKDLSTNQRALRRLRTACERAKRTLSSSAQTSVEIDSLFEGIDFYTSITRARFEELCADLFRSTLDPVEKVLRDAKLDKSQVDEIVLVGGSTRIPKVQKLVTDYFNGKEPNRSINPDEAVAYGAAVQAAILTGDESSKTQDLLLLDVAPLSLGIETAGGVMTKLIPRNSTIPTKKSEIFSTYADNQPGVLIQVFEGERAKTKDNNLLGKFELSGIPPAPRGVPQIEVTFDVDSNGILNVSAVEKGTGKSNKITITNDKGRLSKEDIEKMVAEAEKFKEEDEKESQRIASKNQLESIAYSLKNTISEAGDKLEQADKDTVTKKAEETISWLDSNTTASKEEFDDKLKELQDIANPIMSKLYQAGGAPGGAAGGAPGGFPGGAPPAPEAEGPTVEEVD
T2 sequence (P10591 2-642): as above

B1: CA17562 (VHH)
VHH: QVQLVESGGGLVQPGGSLRLSCAASGFDFSRNRLNWHRQAPGKQRELVATIGSNGPRYADSVKDRFTISRDNEKNTVYLEMNSVKPEDTAVYYCAARGYWGQGTQVTVSS
notes: C-terminal 6xHis-EPEA tag is part of the entry
In the case of B1, the binding result (with GFP-tagged SSA1; in assay [1]) was “binds” in each case.

B2: CA17520 (VHH)
VHH: QVQLVESGGGLVQTGGSLRLSCAASVRTFSNYIMGWFRQAPGKEREFVATISWSGINTYYADNVKGRFTISRDNARNTVYLQMNSLKPEDTAIYYCAAKSAVGYYHDSYASRAEEYDYWGQGTQVTVSS
notes: as for B1
For B2, the binding result in the assay with GFP protein is on record as “binds”.

B3: CA17673 (VHH)
VHH: QVQLVESGGGLVQAGGSLRLSCAASARAFMNYIMGWFRQAPGKEREFVATISWSGVTTDYADNVKGRFTISRDNAKNTVSLQMNSLKPEDTAIYYCAAKSAVGYYSDIYNSRAKEYDYWGQGTQVTVSS
notes: as for B1
As to B3, the binding result in the assay with GFP protein is listed as “binds”.

B4: CA17794 (VHH)
VHH: QVQLVESGGGLVQPGGSLRLSCTASGVTFSRYAMSWYRQAPGKERELVATITGAGSSTNYEDSVKGRFTISRDNAKNTVYLQMNSLKPEDTAVYYCYADHYGLGYLDYWGQGTQVTVSS
notes: as for B1
Regarding B4, the binding result (in assay [2]; with GFP-tagged PGI1) was “binds” each time.

B5: CA17517 (VHH)
VHH: QVQLVESGGGLVQPGGSLRLSCAASGRTFSNYIMGWFRQPPGKEREFVATISWSGSDTVYASSVKGRFTISRDNAKSTVYLQMNSLKPEDTAIYYCAAKDAVGYWSSDVYSEAKEYDYWGQGTQVTVSS
notes: as for B1
With B5, the binding result with GFP protein is given as “binds”.

B6: CA17674 (VHH)
VHH: QVQLVESGGGLVQPGDFLRLSCAASDRTFSNYIMGWFRQAPGKEREFVATISWSGSDTVYASSVKGRFTISRDNAKSTVYLKMNSLKPEDTAIYYCAAKYAVGYWGNDVASEAKDYNYWGQGTQVTVSS
notes: as for B1
As for B6, the binding result with GFP protein is reported as “binds”.

B7: CA17518 (VHH)
VHH: QVQLVESGGGLVQAGGSLRLSCVTSGFTFDDYAIGWFRQAPGKEREGVSSISSSDGTTYYADSVKGRFTISSDNAKNTVYLQMNNLKPEDTAVYYCAADWAAWPSIRVGVGVPAYEYDYWGQGTQVTVSS
notes: as for B1
Turning to B7, the binding result in the assay with GFP protein is “binds”.

B8: CA17791 (VHH)
VHH: QVQLVESGGGLVQPGGSLRLSCAASGITFSSYAMGWYRQAPGKERELVARITSGGSTDYAVSVKGRFTISRDNANNLVYLQMNSLNSEDTAVYYCHSQYSYGPLEYWGQGTQVTVSS
notes: as for B1
Regarding B8, the binding result (in assay [2]; in the assay with GFP-tagged PGI1) was “binds” throughout.

B9: CA17796 (VHH)
VHH: QVQLVESGGGLVQPGGSLRLSCAASGISFHSYAMGWYRQAPGKQRELVSTITTGGSTDYAVSVKGRFTISRDNAKNTVYLQMNNLNSEDTAVYYCHSQYAYGPLEYWGQGTQVTVSS
notes: as for B1
Turning to B9, the binding result (in assay [2]; with GFP-tagged PGI1) was “binds” throughout.

B10: CA17676 (VHH)
VHH: QVQLVESGGGLVQAGGSLRLSCAGSGGTFSAYTMGWFRQGLGEERELVACISRSGASTFYTDPVKGRFTISRDNDKNTVYLQMNNLKPEDTAVYYCAADWTVIDEITEQRSKHQTSYDYWGQGTQVTVSS
notes: as for B1
Consider B10, for which the binding result in the assay with GFP protein is on record as “binds”.

B11: CA17795 (VHH)
VHH: QVQLVESGGGLVQPGGSLRLSCAASGSFFNINAMAWYRQAPGKQRELVAVIASSGRTNYADSVSGRFTISRDNAKNTVYLQMNSLKPEDTAVYYCNSKIRQASWNLVLSDHWGQGTQVTVSS
notes: as for B1
For the molecule B11, the binding result (in assay [2]; in the assay with GFP-tagged PGI1) was “binds” each time.

B12: CA17792 (VHH)
VHH: QVQLVESGGGLVQPGGSLRLSCAASGISFGSYTMAWYRQAPGKQRDMVADITTGGRTNYADSVKGRFTISRDNAKNTVYLQMNSLKSEDTAVYYCKADFAYGRDLTYWGQGTQVTVSS
notes: as for B1
As to B12, the binding result (in assay [2]; with GFP-tagged PGI1) was “binds” each time.

B13: CA8780 (VHH)
VHH: QVQLQESGGGLVQPGGSLRLSCAPSGPFSPNSMGWYRQAPGKQRELVAVMTIDGRTNYQDSVKGRFTISRDYVKNTAYLQMNNLKPDDTAVYICNAETRGFMHWGQGTQVTVSS
notes: Control Nanobody; C-terminal 6xHis-EPEA tag is part of the entry; also called irrelevant Nb
As for B13, the binding result with GFP protein is reported as “no binding”.

B14: CA17675 (VHH)
VHH: QVQLVESGGKLVPAGDSLRLSCAASGRTFSDYIIGWFRQVSGKERKFVAAIRRSDGETVYTDSVKGRFTISRDNAKNTVYLQMNSLKPEDTAVYYCYLNNRNSRGSMDAYWGQGTQVTVSS
notes: as for B1
Turning to B14, the binding result with GFP protein is “binds”.

B15: CA17519 (VHH)
VHH: QVQLVESGGGLVQPGGSLRLSCAASGRIFSIYVMGWYRQAPGKQRELVAQITNSGRTKFADSVKGRFTISRDNAKNMVYLQMNSLKAEDTAVYYCYADLDWYGGTANNDFWGQGTQVTVSS
notes: as for B1
B15: in the assay with GFP protein, the binding result is reported as “binds”.

B16: CA17793 (VHH)
VHH: QVQLVESGGGLVRPGGSLRLSCAASGITFSSYTMGWYRQAPGKQRELVATITTGGSTNYAVSAKGRFTISRDNANNRVTLQMNSLNSEDTAAYYCHSRFAYGPLEYWGQGTQVTVSS
notes: as for B1
In the case of B16, the binding result (in assay [2]; with GFP-tagged PGI1) was “binds” in each case.
